Results taken from paper PMC9482650, “Quantitative fragmentomics allow affinity mapping of interactomes” (Nature Communications, 2022).

T1: TIAM2, Q8IVF5
T1 sequence (Q8IVF5 885-986, limits assumed, looked up): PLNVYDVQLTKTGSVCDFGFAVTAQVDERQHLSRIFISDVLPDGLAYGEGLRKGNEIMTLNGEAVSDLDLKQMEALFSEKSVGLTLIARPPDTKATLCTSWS

T2: SNTG2, Q9NY99
T2 sequence (Q9NY99 68-166, limits assumed, looked up): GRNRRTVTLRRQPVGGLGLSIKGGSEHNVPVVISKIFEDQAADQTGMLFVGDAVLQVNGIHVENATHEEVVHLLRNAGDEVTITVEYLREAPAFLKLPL

T3: SNTG1, Q9NSN8
T3 sequence (Q9NSN8 52-150, limits assumed, looked up): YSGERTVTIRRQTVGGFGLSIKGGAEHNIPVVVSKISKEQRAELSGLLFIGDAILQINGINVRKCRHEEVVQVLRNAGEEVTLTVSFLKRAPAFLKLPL

T4: MPDZ_10, O75970
T4 sequence (O75970 1624-1722, limits assumed, looked up): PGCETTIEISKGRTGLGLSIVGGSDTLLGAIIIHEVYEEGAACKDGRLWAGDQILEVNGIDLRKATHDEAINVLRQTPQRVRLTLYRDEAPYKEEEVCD

T5: HTRA4, P83105
T5 sequence (P83105 378-476, limits assumed, looked up): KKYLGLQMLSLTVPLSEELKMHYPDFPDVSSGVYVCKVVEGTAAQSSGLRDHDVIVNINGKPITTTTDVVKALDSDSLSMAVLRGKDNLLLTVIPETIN

T6: DFNB31_1, Q9P202
T6 sequence (Q9P202 135-233, limits assumed, looked up): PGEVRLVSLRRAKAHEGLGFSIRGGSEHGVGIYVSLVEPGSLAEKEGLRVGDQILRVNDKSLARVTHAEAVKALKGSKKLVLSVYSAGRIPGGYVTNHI

T7: RAPGEF6, Q8TEU7
T7 sequence (Q8TEU7 525-625, limits assumed, looked up): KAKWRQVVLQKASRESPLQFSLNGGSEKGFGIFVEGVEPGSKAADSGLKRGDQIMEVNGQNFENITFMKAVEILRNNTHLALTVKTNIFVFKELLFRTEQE

T8: LIN7B, Q9HAP6
T8 sequence (Q9HAP6 88-185, limits assumed, looked up): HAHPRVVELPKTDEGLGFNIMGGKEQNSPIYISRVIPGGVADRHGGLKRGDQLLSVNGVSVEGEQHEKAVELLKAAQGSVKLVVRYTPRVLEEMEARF

T9: NHERF3_1, Q5T2W1
T9 sequence (Q5T2W1 4-100, limits assumed, looked up): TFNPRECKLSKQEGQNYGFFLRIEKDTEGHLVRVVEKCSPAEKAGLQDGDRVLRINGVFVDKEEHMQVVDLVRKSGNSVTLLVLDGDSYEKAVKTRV

T10: SNTA1, Q13424
T10 sequence (Q13424 82-180, limits assumed, looked up): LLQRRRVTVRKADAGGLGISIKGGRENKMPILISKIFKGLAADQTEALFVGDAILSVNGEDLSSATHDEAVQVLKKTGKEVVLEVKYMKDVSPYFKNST

T11: DLG3_2, Q92796
T11 sequence (Q92796 221-321, limits assumed, looked up): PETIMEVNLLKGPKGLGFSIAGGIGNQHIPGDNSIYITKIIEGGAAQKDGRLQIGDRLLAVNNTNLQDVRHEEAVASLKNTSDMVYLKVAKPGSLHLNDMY


How the values were obtained:
Experiment in all cases: holdup assay
Parameters in all cases: key: below the threshold = too weak to quantify, mostly under pKd 3.1 to 4
Settings in all cases: plain residues with an end cap or a label only (N-terminal biotin on a linker: ado-ado)
TIAM2, Q8IVF5 = molecular target: T1, TIAM2, Q8IVF5
GRIP2_5, Q9C0E4 = molecular target: GRIP2_5, Q9C0E4
GRIP2_5, Q9C0E4, sequence (Q9C0E4 544-642): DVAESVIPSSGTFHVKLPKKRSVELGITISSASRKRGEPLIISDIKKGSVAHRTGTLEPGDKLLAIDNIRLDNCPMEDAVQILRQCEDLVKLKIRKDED

SNTG2, Q9NY99 = molecular target: T2, SNTG2, Q9NY99
DLG5_1, Q8TDM6 = molecular target: DLG5_1, Q8TDM6
DLG5_1, Q8TDM6, sequence (Q8TDM6 617-713): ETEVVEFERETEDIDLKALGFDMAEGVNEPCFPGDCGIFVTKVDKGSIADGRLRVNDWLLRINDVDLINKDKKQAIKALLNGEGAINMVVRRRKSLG

SNTG1, Q9NSN8 = molecular target: T3, SNTG1, Q9NSN8
GOPC, Q9HD26 = molecular target: GOPC, Q9HD26
PDLIM1, O00151 = molecular target: PDLIM1, O00151
PDLIM1, O00151, sequence (O00151 1-87): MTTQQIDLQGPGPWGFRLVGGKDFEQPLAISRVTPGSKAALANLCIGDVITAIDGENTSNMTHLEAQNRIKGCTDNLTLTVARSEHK

MPDZ_10, O75970 = molecular target: T4, MPDZ_10, O75970
LIMK2, P53671 = molecular target: LIMK2, P53671
LIMK2, P53671, sequence (P53671 143-248): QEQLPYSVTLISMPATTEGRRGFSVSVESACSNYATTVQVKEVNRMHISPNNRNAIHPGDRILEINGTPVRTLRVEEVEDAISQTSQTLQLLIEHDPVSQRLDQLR

HTRA4, P83105 = molecular target: T5, HTRA4, P83105
DFNB31_1, Q9P202 = molecular target: T6, DFNB31_1, Q9P202
RAPGEF6, Q8TEU7 = molecular target: T7, RAPGEF6, Q8TEU7
FRMPD2_2, Q68DX3 = molecular target: FRMPD2_2, Q68DX3
FRMPD2_2, Q68DX3, sequence (Q68DX3 944-1038): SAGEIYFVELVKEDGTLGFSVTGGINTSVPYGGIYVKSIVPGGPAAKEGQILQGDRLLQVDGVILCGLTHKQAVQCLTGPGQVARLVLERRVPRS

IL16_1, Q14005 = molecular target: IL16_1, Q14005
IL16_1, Q14005, sequence (Q14005 210-306): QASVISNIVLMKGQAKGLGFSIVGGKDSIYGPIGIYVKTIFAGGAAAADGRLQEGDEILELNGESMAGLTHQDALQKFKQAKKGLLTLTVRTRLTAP

IL16_4, Q14005 = molecular target: IL16_4, Q14005
IL16_4, Q14005, sequence (Q14005 1229-1329): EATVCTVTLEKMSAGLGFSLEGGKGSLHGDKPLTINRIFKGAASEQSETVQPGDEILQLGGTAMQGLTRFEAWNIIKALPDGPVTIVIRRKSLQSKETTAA

Inadl_8, Q8NI35 = molecular target: Inadl_8, Q8NI35
Inadl_8, Q8NI35, sequence (Q8NI35 1425-1530): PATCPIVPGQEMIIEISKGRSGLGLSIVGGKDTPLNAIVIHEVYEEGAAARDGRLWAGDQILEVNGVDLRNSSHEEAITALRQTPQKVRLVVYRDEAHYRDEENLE

LIN7B, Q9HAP6 = molecular target: T8, LIN7B, Q9HAP6
SCRIB_1, Q14160 = molecular target: SCRIB_1, Q14160
SCRIB_1, Q14160, sequence (Q14160 718-814): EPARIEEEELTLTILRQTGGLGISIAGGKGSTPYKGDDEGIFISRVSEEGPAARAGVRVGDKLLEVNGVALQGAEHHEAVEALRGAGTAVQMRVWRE

NHERF3_1, Q5T2W1 = molecular target: T9, NHERF3_1, Q5T2W1
SNTA1, Q13424 = molecular target: T10, SNTA1, Q13424
DLG4_3, P78352 = molecular target: DLG4_3, P78352
DLG4_3, P78352, sequence (P78352 306-403): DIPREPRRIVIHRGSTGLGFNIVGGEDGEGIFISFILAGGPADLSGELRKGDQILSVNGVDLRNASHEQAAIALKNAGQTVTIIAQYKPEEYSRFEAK

GORASP2, Q9H8Y8 = molecular target: GORASP2, Q9H8Y8
DLG3_2, Q92796 = molecular target: T11, DLG3_2, Q92796
PARD3_3, Q8TEW0 = molecular target: PARD3_3, Q8TEW0
PARD3_3, Q8TEW0, sequence (Q8TEW0 582-685): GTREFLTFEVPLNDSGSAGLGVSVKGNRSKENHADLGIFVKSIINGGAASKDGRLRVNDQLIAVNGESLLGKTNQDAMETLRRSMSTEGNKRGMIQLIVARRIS

CASK, O14936 = molecular target: CASK, O14936
CASK, O14936, sequence (O14936 487-570): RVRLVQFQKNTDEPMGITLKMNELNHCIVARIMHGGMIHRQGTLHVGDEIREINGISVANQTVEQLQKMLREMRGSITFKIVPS

NOS1, P29475 = molecular target: NOS1, P29475
NOS1, P29475, sequence (P29475 9-101): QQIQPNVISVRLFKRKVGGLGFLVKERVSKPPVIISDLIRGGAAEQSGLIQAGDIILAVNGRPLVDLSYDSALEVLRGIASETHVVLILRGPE

Row | pKd (TIAM2, Q8IVF5) | pKd (GRIP2_5, Q9C0E4) | pKd (SNTG2, Q9NY99) | pKd (DLG5_1, Q8TDM6) | pKd (SNTG1, Q9NSN8) | pKd (GOPC, Q9HD26) | pKd (PDLIM1, O00151) | pKd (MPDZ_10, O75970) | pKd (LIMK2, P53671) | pKd (HTRA4, P83105) | pKd (DFNB31_1, Q9P202) | pKd (RAPGEF6, Q8TEU7) | pKd (FRMPD2_2, Q68DX3) | pKd (IL16_1, Q14005) | pKd (IL16_4, Q14005) | pKd (Inadl_8, Q8NI35) | pKd (LIN7B, Q9HAP6) | pKd (SCRIB_1, Q14160) | pKd (NHERF3_1, Q5T2W1) | pKd (SNTA1, Q13424) | Binder | other results
1 | 4.1 | below the threshold | below the threshold | below the threshold | 3.6 | below the threshold | below the threshold | below the threshold | below the threshold | 4.51 | below the threshold | 3.5 | below the threshold | below the threshold | below the threshold | 3.59 | 3.81 | below the threshold | 4.08 | below the threshold | HLRARKSEWV [GJD4, Q96KN9] | pKd (DLG4_3, P78352): below the threshold; pKd (GORASP2, Q9H8Y8): 5.57; pKd (DLG3_2, Q92796): 4.33; pKd (PARD3_3, Q8TEW0): below the threshold; pKd (CASK, O14936): below the threshold; pKd (NOS1, P29475): 4.89
2 | below the threshold | below the threshold | below the threshold | 3.57 | below the threshold | 4.06 | below the threshold | 3.69 | below the threshold | below the threshold | 3.68 | 3.53 | below the threshold | below the threshold | 3.69 | 4.35 | 3.62 | below the threshold | below the threshold | below the threshold | TPPAAKKSRI [BAZ1A, Q9NRL2] | pKd (DLG4_3, P78352): below the threshold; pKd (GORASP2, Q9H8Y8): below the threshold; pKd (DLG3_2, Q92796): below the threshold; pKd (PARD3_3, Q8TEW0): below the threshold; pKd (CASK, O14936): below the threshold; pKd (NOS1, P29475): 3.51
3 | 3.48 | below the threshold | below the threshold | below the threshold | below the threshold | below the threshold | below the threshold | below the threshold | below the threshold | 3.85 | below the threshold | below the threshold | below the threshold | below the threshold | below the threshold | below the threshold | 3.74 | below the threshold | below the threshold | below the threshold | LSEFKAMDSI [CTNNA1, P35221] | pKd (DLG4_3, P78352): below the threshold; pKd (GORASP2, Q9H8Y8): below the threshold; pKd (DLG3_2, Q92796): 3.56; pKd (PARD3_3, Q8TEW0): below the threshold; pKd (CASK, O14936): below the threshold; pKd (NOS1, P29475): below the threshold
4 | below the threshold | below the threshold | 3.63 | 3.48 | 3.47 | 4.01 | below the threshold | below the threshold | below the threshold | below the threshold | 4.38 | below the threshold | below the threshold | below the threshold | below the threshold | 3.54 | below the threshold | 4.02 | 5.29 | below the threshold | QHKTQLQTLI [BPIFA2, Q96DR5] | pKd (DLG4_3, P78352): 3.72; pKd (GORASP2, Q9H8Y8): 3.77; pKd (DLG3_2, Q92796): 4.08; pKd (PARD3_3, Q8TEW0): 3.83; pKd (CASK, O14936): below the threshold; pKd (NOS1, P29475): 4.2
5 | 4.22 | below the threshold | 3.49 | 3.56 | 3.61 | below the threshold | below the threshold | below the threshold | below the threshold | 4.14 | 3.58 | 3.57 | below the threshold | below the threshold | below the threshold | below the threshold | 3.64 | 3.66 | below the threshold | below the threshold | VDSTVKVWTC [TRAF7, Q6Q0C0] | pKd (DLG4_3, P78352): 3.56; pKd (GORASP2, Q9H8Y8): 4.88; pKd (DLG3_2, Q92796): 4.18; pKd (PARD3_3, Q8TEW0): 4.66; pKd (CASK, O14936): 3.75; pKd (NOS1, P29475): below the threshold
6 | 3.99 | below the threshold | 4.19 | below the threshold | 3.66 | below the threshold | below the threshold | below the threshold | below the threshold | below the threshold | below the threshold | below the threshold | below the threshold | below the threshold | below the threshold | below the threshold | 3.89 | 4.37 | 4.64 | 4.71 | DDPSTAETVL [ABCA7, Q8IZY2] | pKd (DLG4_3, P78352): below the threshold; pKd (GORASP2, Q9H8Y8): below the threshold; pKd (DLG3_2, Q92796): 4.37; pKd (PARD3_3, Q8TEW0): 4.56; pKd (CASK, O14936): below the threshold; pKd (NOS1, P29475): 3.52
